Measured values from patent US11708423B2, “Chimeric engulfment receptor molecules and methods of use” (CERO THERAPEUTICS, INC., priority 2017, dated 2023).
Entries after “also recorded” stand apart in the source; their conditions may differ.

What was measured:
[1] = test system: H1975 lung adenocarcinoma cells; assay: MTT viability of H1975 cells co-cultured with CER T cells and Osimeritinib; format: cell-based; conditions: Osimeritinib 250, 500, 1000 nM; CD4+ T cells, E:T 1:1, 2:1, 5:1; 48 hours
From the text: H1975 lung adenocarcinoma cells harboring an EGFR mutation were co-cultured with CER123- or CER126-modified or Mock-transduced (vector only) CD4+ T cells with increasing concentrations of Osimeritinib. CER123 has a polypeptide sequence as set forth in SEQ ID NO:150 and comprises a Tim4 binding domain, Tim4 transmembrane domain, and an engulfment signaling domain comprising a primary engulfment signaling domain comprising a TLR2 signaling domain and a secondary engulfment signaling domain comprising a TRAF6 signaling domain. CER126 has a polypeptide sequence as set forth in SEQ ID NO:174 and comprises a Tim4 binding domain, Tim4 transmembrane domain, and an engulfment signaling domain comprising a primary engulfment signaling domain comprising a TLR2 signaling domain and a secondary engulfment signaling domain comprising a TRAF2 signaling domain. CD4 T cells were transduced with a lentiviral vector comprising CER123 or CER126 nucleic acid and truncated EGFR (transduction marker) nucleic acid. Assays were performed using CER modified T cells purified by FACS using an EGFR specific antibody 7 days after activation using CD3 & CD28 microbeads. CER modified T cells and H1975 cells were co-cultured at effector:target cell ratio (E:T) of 1:1, 2:1, or 5:1. After 48 hours of co-culture in the presence of Osimeritinib (0, 250 nM, 500 nM, or 1000 nM), T cells were washed away, and the number of viable H1975 cells were quantified using a calorimetric MTT assay. Cell viability experiments were performed in triplicate and presented as % of control (FIG. 45A).

[2] = test system: H1975 NSCLC cells; assay: LDH-based cytotoxicity, H1975 cells, 18 hours co-culture; format: cell-based; conditions: Osimeritinib 0, 500, 1000 nM, E:T 2:1 or 5:1
Protocol: H1975 NSCLC cells were co-cultured with CER123- or CER126-expressing CD4+ T cells with increasing concentrations of Osimeritnib (0, 500 nM, or 1000 nM). Mock-transduced (vector only) T cells were used as control. Assays were performed using CER modified T cells purified by FACS using an EGFR specific antibody 7 days after activation using CD3 & CD28 microbeads. CER modified T cells and H1975 cells were co-cultured at effector:target cell ratios of 2:1 or 5:1. After 18 hours of co-culture, bulk supernatants were evaluated using LDH-based cytotoxicity assay.

[3] = test system: HCC159 lung adenocarcinoma cells; assay: MTT viability of HCC159 cells co-cultured with CER T cells and Osimeritinib; format: cell-based
Protocol: HCC159 lung adenocarcinoma cells harboring an EGFR mutation were co-cultured with CER123- or CER126-expressing CD4+ T cells with increasing concentrations of Osimeritinib (0.1 nM, 1 nM, or 5 nM). Mock transduced (vector only) T cells were used as control. After 48 hours of co-culture at effector: target cell ratios at 1:1, 2:1 or 5:1 in the presence of drug, T cells were washed away, and the number of viable HCC159 cells was quantified using a calorimetric MTT assay. Cell viability experiments were performed in triplicates and presented as % of control with (FIG. 48A).

[4] = test system: ALK+A549 cells; assay: LDH cytotoxicity assay, A549 ALK+ cells, 18 hours co-culture; format: cell-based; conditions: Crizotinib or Alectinib 0, 2500, 3700 nM; E:T 2:1 or 5:1; 18 hours
Protocol: An ELM4-ALK translocation was introduced into A549 cells. […] Assays were performed with purified tEGFR^+ (transduction marker), CER-expressing T cells 7 days after activation using CD3 & CD28 microbeads at effector: target cell ratios of 2:1 or 5:1. Mock T cells were transduced with vector alone and used as control. After 18 hours of co-culture, bulk supernatants were evaluated using a LDH cytoxicity assay indicating cell killing (FIGS. 65A-B).

[5] = test system: A549 cells introduced with an ELM4-ALK translocation; assay: Interferon Gamma secretion, A549 ALK+ co-culture; format: cell-based; conditions: Crizotinib (3700 nM) or Alectinib (3700 nM), 18 hours, E:T 2:1 and 5:1
Protocol: After 18 hours of co-culture, bulk supernatants were evaluated for Interferon Gamma secretion (FIGS. 66A-B). Assays were performed using purified, tEGFR^+ (transduction marker), CER-expressing T cells 7 days after activation using CD3 & CD28 microbeads at effector: target ratios of (2:1 & 5:1). Control “Mock” T cells were transduced with vector alone.

[6] = test system: pHrodo-red labeled, dexamethasone treated thymocytes; assay: Luminal degradation of engulfed thymocytes in CER-transduced Ba/F3 cells (time-lapse imaging); format: cell-based; conditions: FACS purified after overnight co-culture
Protocol: Luminal degradation in CER-transduced cells was also evaluated following engulfment. Ba/F3 cells transduced with CER21 or CER116 were co-cultured with pHrodo-red labeled, dexamethasone treated thymocytes overnight and subsequently purified by FACS. Target cell destruction was visualized by time-lapse imaging and quantified over time (FIG. 85F). […] CER116-harboring Ba/F3 cells (top) catabolize target cells, allowing cells to return to homeostasis and resume immune responsiveness. The addition of a TRAF6 signaling domain to the CER construct promotes rapid destruction of engulfed material.

[7] = test system: SCC152 cells; assay: Magnitude breadth of phagocytosis by CER-transduced CD4+ T cells; format: cell-based, human; conditions: 8 hours co-culture with CD8/E7 TCR T cells and SCC152 cells
Protocol: Various CER-modified CD4+ T cells were also evaluated for breadth of response to determine whether a particular CER confers a broad phagocytic response of low magnitude (e.g., 10% engulfment in 90% of cells) or a less frequent but strong phagocytic response (e.g., 90% engulfment in 10% of cells) in the host cells. CD8+ T cells were transduced with HPV16 E7 specific TCR as described in Example 5. CD4+ T cells were transduced with lentiviral vectors comprising a CER21, CER27, CER104, CER116, or CER117 nucleic acid. Mock-transduced (vector alone) CD4+ T cell were used as control. CD4+/CER+ and CD8+/E7 TCR+ T cells were stained with CELLTRACE violet. […] HPV16 E7 TCR transduced CD8+ T cells and selected CER transduced CD4+ T cells were mixed at a 1:1 ratio and co-cultured with SCC152 cells at a 1:1 ratio for 8 hours. Phagocytosis of target SCC152 cells by CER-transduced CD4+ T cells was analyzed by fluorescence microscopy. […] The horizontal axis represents the % area of CER-transduced CD4+ T cells having engulfment or % area of […]. This measure was rarely above 40% across CER types tested. The vertical axis represents the proportion of CER-transduced CD4+ T cells that were phagocytic. For CER104, about 20% of CER104-transduced CD4+ T cells have more than 10% engulfment. For CER117-transduced CD4+ T cells, less than 10% have more than 10% engulfment.

B1: CER123: Tim4 binding and transmembrane domains, TLR2 primary and TRAF6 secondary signaling domains; SEQ ID NO:150 (protein)
chain: MSKGLLLLWLVTELWWLYLTPAASEDTIIGFLGQPVTLPCHYLSWSQSRNSMCWGKGSCPNSKCNAELLRTDGTRIISRKSTKYTLLGKVQFGEVSLTISNTNRGDSGVYCCRIEVPGWFNDVKKNVRLELRRATTTKKPTTTTRPTTTPYVTTTTPELLPTTVMTTSVLPTTTPPQTLATTAFSTAVTTCPSTTPGSFSQETTKGSAFTTESETLPASNHSQRSMMTISTDIAVLRPTGSNPGILPSTSQLTTQKTTLTTSESLQKTTKSHQINSRQTILIIACCVGFVLMVLLFLAFLHRFHGLWYMKMMWAWLQAKRKPRKAPSRNICYDAFVSYSERDAYWVENLMVQELENFNPPFKLCLHKRDFIPGKWIIDNIIDSIEKSHKTVFVLSENFVKSEWCKYELDFSHFRLFDENNDAAILILLEPIEKKAIPQRFCKLRKIMNTKTYLEWPMDEAQREGFWVNLRAAIKSMSLLNCENSCGSSQSESDCCVAMASSCSAVTKDDSVGGTASTGNLSSSFMEEIQGYDVEFDPPLESKYECPICLMALREAVQTPCGHRFCKACIIKSIRDAGHKCPVDNEILLENQLFPDNFAKREILSLMVKCPNEGCLHKMELRHLEDHQAHCEFALMDCPQCQRPFQKFHINIHILKDCPRRQVSCDNCAASMAFEDKEIHDQNCPLANVICEYCNTILIREQMPNHYDLDCPTAPIPCTFSTFGCHEKMQRNHLARHLQENTQSHMRMLA
modifications: CER123 protein
growth/viability of H1975 cells (MTT) [1]: synergistically suppressed
cell killing of H1975 cells (LDH) [2]: inducible cell killing responses
bright field images of HCC159 co-culture ([3]; 1 nM Osimeritinib, vs control T cells): loss of HCC159 cells
growth/viability of HCC159 cells (MTT) ([3]; Osimeritinib 0.1, 1, 5 nM, E:T 1:1, 2:1, 5:1, 48 hours): dose-dependent target cell killing responses; also recorded: synergistically suppressed
cell killing of A549 ALK+ cells (LDH) [4]: dose-dependent inducible cytokine secretion and cell killing responses
Interferon Gamma secretion [5]: dose-dependent inducible cytokine secretion

B2: CER21: Tim4 binding and transmembrane domains, TLR8 signaling domain; SEQ ID NO:88 (protein)
chain: MSKGLLLLWLVTELWWLYLTPAASEDTIIGFLGQPVTLPCHYLSWSQSRNSMCWGKGSCPNSKCNAELLRTDGTRIISRKSTKYTLLGKVQFGEVSLTISNTNRGDSGVYCCRIEVPGWFNDVKKNVRLELRRATTTKKPTTTTRPTTTPYVTTTTPELLPTTVMTTSVLPTTTPPQTLATTAFSTAVTTCPSTTPGSFSQETTKGSAFTTESETLPASNHSQRSMMTISTDIAVLRPTGSNPGILPSTSQLTTQKTTLTTSESLQKTTKSHQINSRQTILIIACCVGFVLMVLLFLAFLHHLFYWDVWFIYNVCLAKVKGYRSLSTSQTFYDAYISYDTKDASVTDWVINELRYHLEESRDKNVLLCLEERDWDPGLAIIDNLMQSINQSKKTVFVLTKKYAKSWNFKTAFYLALQRLMDENMDVIIFILLEPVLQHSQYLRLRQRICKSSILQWPDNPKAEGLFWQTLRNVVLTENDSRYNNMYVDSIKQY
modifications: CER21 chimeric engulfment receptor
luminal content degradation over time [6]: broken down over-time

B3: CER104: Tim4 binding and transmembrane domains, TLR8 primary and DAP12 secondary signaling domains; SEQ ID NO:133 (protein)
chain: MSKGLLLLWLVTELWWLYLTPAASEDTIIGFLGQPVTLPCHYLSWSQSRNSMCWGKGSCPNSKCNAELLRTDGTRIISRKSTKYTLLGKVQFGEVSLTISNTNRGDSGVYCCRIEVPGWFNDVKKNVRLELRRATTTKKPTTTTRPTTTPYVTTTTPELLPTTVMTTSVLPTTTPPQTLATTAFSTAVTTCPSTTPGSFSQETTKGSAFTTESETLPASNHSQRSMMTISTDIAVLRPTGSNPGILPSTSQLTTQKTTLTTSESLQKTTKSHQINSRQTILIIACCVGFVLMVLLFLAFLHHLFYWDVWFIYNVCLAKVKGYRSLSTSQTFYDAYISYDTKDASVTDWVINELRYHLEESRDKNVLLCLEERDWDPGLAIIDNLMQSINQSKKTVFVLTKKYAKSWNFKTAFYLALQRLMDENMDVIIFILLEPVLQHSQYLRLRQRICKSSILQWPDNPKAEGLFWQTLRNVVLTENDSRYNNMYVDSIKQYYFLGRLVPRGRGAAEAATRKQRITETESPYQELQGQRSDVYSDLNTQRPYYK
modifications: CER104 protein
proportion of CER-transduced CD4+ T cells that have more than 10% engulfment [7]: about 20%
